Read-outs that look alike come from different tables or passages of the source.
B1: HJ (Holliday junction) (structured_DNA)
DNA 1: CTAGTATAGAGCCGGCGCGCCATGTCTAGATAGCGTTAGGTCTGCCGAATAGTACTACTCGGATCCCGAGCGAACCACGC
DNA 2: GCGTGGTTCGCTCGGGATCCGAGTAGTACTATTCGGCAGAGGATTCGAATAGGCCTAATCGAATTCCGCCATCGATGCAC
DNA 3: GTGCATCGATGGCGGAATTCGATTAGGCCTATTCGAATCCAGACGCGAGTAGATCTTCACGGTACCCGCGGTTACCCGTG
DNA 4: CACGGGTAACCGCGGGTACCGTGAAGATCTACTCGCGTCTCCTAACGCTATCTAGACATGGCGCGCCGGCTCTATACTAG
B2: 80mer with 5 nt gap (mixed)
DNA 1: CTAGTATAGAGCCGGCGCGCCATGTCTAGATAGCGTTAGGTCTGCCGAATAGTACTACTCGGATCCCGAGCGAACCACGC
DNA 2: GCGTGGTTCGCTCGGGATCCGAGTAGTACTATTCGG
DNA 3: CTAACGCTATCTAGACATGGCGCGCCGGCTCTATACTAG
B3: 80mer with 10 nt gap (mixed)
DNA 1: CTAGTATAGAGCCGGCGCGCCATGTCTAGATAGCGTTAGGTCTGCCGAATAGTACTACTCGGATCCCGAGCGAACCACGC
DNA 2: GCGTGGTTCGCTCGGGATCCGAGTAGTACTATTCG
DNA 3: CGCTATCTAGACATGGCGCGCCGGCTCTATACTAG
B4: 80mer with 40 nt gap (mixed)
DNA 1: CTAGTATAGAGCCGGCGCGCCATGTCTAGATAGCGTTAGGTCTGCCGAATAGTACTACTCGGATCCCGAGCGAACCACGC
DNA 2: GCGTGGTTCGCTCGGGATCC
DNA 3: GCGCGCCGGCTCTATACTAG
B5: gHJ (gapped HJ) (structured_DNA)
DNA 1: CTAGTATAGAGCCGGCGCGCCATGTCTAGATAGCGTTAGGTCTGCCGAATAGTACTACTCGGATCCCGAGCGAACCACGC
DNA 2: GCGTGGTTCGCTCGGGATCCGAGTAGTACTATTCGGCAGAGGATTCGAATAGGCCTAATCGAATTCCGCCATCGATGCAC
DNA 3: GTGCATCGATGGCGGAATTCGATTAGGCCTATTCGAATCCAGACGCGAGTAGATCTTCACGGTACCCGCGGTTACCCGTG
DNA 4: CACGGGTAACCGCGGGTACCGTGAAGATCTACTCGCGTCTCCTAA
DNA 5: CCGGCTCTATACTAG
B6: 80mer with 20 nt gap (mixed)
DNA 1: CTAGTATAGAGCCGGCGCGCCATGTCTAGATAGCGTTAGGTCTGCCGAATAGTACTACTCGGATCCCGAGCGAACCACGC
DNA 2: GCGTGGTTCGCTCGGGATCCGAGTAGTACT
DNA 3: TCTAGACATGGCGCGCCGGCTCTATACTAG

How the values were obtained:
Assay in all cases: EMSA
[1] = target: hMSH4 (hMutSγ subunit);hMSH5 (hMutSγ subunit) (Homo sapiens;Homo sapiens, UniProt O15457;O43196 1-936;1-834, |)
[2] = target: T1, hMLH1 (hMutLγ subunit);hMLH3 (hMutLγ subunit) (Homo sapiens;Homo sapiens, UniProt P40692;Q9UHC1 1-756;1-1453, |)
[3] = target: T1, hMLH1 (hMutLγ subunit);hMLH3 (hMutLγ …); remark: listed apart in the source
[4] = target: T1, hMLH1 (hMutLγ subunit);hMLH3 (hMutLγ …); remark: listed apart in the source

Binder	Kd [2] [nM]	binding result [3]	also measured
B1	~38	–	binding result [1]: binds
B2	–	no binding	–
B3	–	no binding	–
B4	–	–	binding result [4]: binds
B5	~16	–	–
B6	–	binds	–
